# The DeepSol protein solubility set
# Assay: soluble on expression in E. coli; label from the status in PepcDB or PDB records
row,Sequence,soluble on expression in E. coli
1,MGKYKFIEERVETMSSSELKIFLNILKSRSKELMSTLESVRGIKDLEAVCKSTQKLNNRVSEFDGGSFLILVVGPVKSGKSTLVNLIAHAHVSPTHFLECTVRPSIISKGQEESITRIFSVADKARKVEQFDSVIDSLRGFEKLENISEISIEKKELNDANLEECVSLALEESVINTDHTLVTSITTSGGELLKDNIFLVDMPGLDGGYVNLDNPIYETISQRADFVIFVQSSNSAISKVSNRFLKLLQENNPKVPVCLLHNVFEAAYWHSEEEKQAVIKAQVEFAENEMGRRNFQLKENIYSLNLGKVADAASYEGMEDLQEEAAKFQRFEKDLYGKVISNSTDIRLRSVIGRTLNQLEKLDNLVGESIGQQEAIDIEYQAAATSFDELLRQASELSYDGSDFRKMVQVYMDDDLKEFTEIVREYYDSGCNSAFAGGAKGKDATRSLVTKFMTDSSAAIKSKFLDSHEHSLARQYLRKLSNLKDDVAFIEKMNTFLKQKGCAPFDSVPQVTDFPVVDFDLQGAFDVKNINNPTVPHIGIPNPFGTYSTMEIQSFLRKAMECITGIDHTHTGKTIKGYLQLTVGKSIYKAANDLYDQYVPVRKQSIIDFLEQQKTMYLNALVSDKEEFDRKDALLRSINAQVQSFKDSIR,not soluble
2,MSVDETITFSLAVKNTGNREGQEIVQLYIRDIKSSLPRPVKELKRFKKVNLMPGEEKIVSLSIDKEALSFFDAERHEWICEPGKFEAIIAASAMDIKDVLKFELKLEHHHHHH,not soluble
3,MSVEKIPGYTYGETENRAPFNLEDLKLLKEAVMFTAEDEEYIQKAGEVLEDQVEEILDTWYGFVGSHPHLLYYFTSPDGTPNEKYLAAVRKRFSRWILDTSNRSYDQAWLDYQYEIGLRHHRTKKNQTDNVESVPNIGYRYLVAFIYPITATMKPFLARKGHTPEEVEKMYQAWFKATTLQVALWSYPYVKYGDF,soluble
4,MDKLNKITVPASQKLRQLQKMVHDIKNNEGGIMDKIKKLKVKGPPSVPRRDYALDSPADEEEQWSDDFDSDYENPDEHSDSEMYVMPAEETGDDSYEPPPAEQQTRVVHPALPFTRGEYVDNRSSQRHSPPFSKTLPSKPSWPSAKARLASTLPAPNSLQKPQVPPKPKDLLEDEADYVVPVEDNDENYIHPRESSPPPAEKAPMVNRSTKPNSSSKHMSPPGTVAGRNSGVWDSKSSLPAAPSPLPRAGKKPATPLKTTPVPPLPNASNVCEEKPVPAERHRGSSHRQDTVQSPVFPPTQKPVHQKPVPLPRFPEAGSPAADGPFHSFPFNSTFADQEAELLGKPWYAGACDRKSAEEALHRSNKDGSFLIRKSSGHDSKQPYTLVAFFNKRVYNIPVRFIEATKQYALGKKKNGEEYFGSVVEIVNSHQHNPLVLIDSQNNTKDSTRLKYAVKVS,soluble
5,MGSDKIHHHHHHMTEILLKELTKSDIDWMITTGNQQELAAGTILIQERGSTEFFHILLDGTFSVTLSQPENNPLTRAFAAIEGEEISGREIGRLSRGEIVGESPLIGTRPPATTITSVEKSLVISIPIRELAAKLQQDVGFAARFYRAIAIIISNRIENTIDQLGRRNLAQSQPLRDVLFILGELHDSDIDWMMASGTPQKIPANTILIHEQGTVDALYILLDGKMSLSISLDERNPLVRAFAAIEGNEISGREIAKLSKGEIIGETPFIDGSLPPTTVKAIEHSVVLSIPRQQLAAKLQQDIGFASRFYRVIASLLDQRLQPMVSQLGYGRRVYSRGESLHEGLEYDDELDINTLDRMAIAGKRFDWMLERLKVS,not soluble
6,GMFAGSIPMYIRVVSITAQSKLQFDMTVTYFENVWSPKVISLGAISAEFVQSNENSGMYIIHYPDKQTAISVFDKIKPEVDEVRTQNRIQITEGKRLFRVD,soluble
7,MSLREDLLEETRKSCQKKIDELEDALSELKKETSQKDHHIKQLEEDNNSNIEWYQNKIEALKKDYESVITSVDSKQTDIEKLQYKVKSLEKEIEEDKIRLHTYNVMDETINDDSLRKELEKSKINLTDAYSQIKEYKDLYETTSQSLQQTNSKLDESFKDFTNQIKNLTDEKTSLEDKISLLKEQMFNLNNELDLQKKGMEKEKADFKKRISILQNNNKEVEAVKSEYESKLSKIQNDLDQQTIYANTAQNNYEQELQKHADVSKTISELREQLHTYKGQVKTLNLSRDQLENALKENEKSWSSQKESLLEQLDLSNSRIEDLSSQNKLLYDQIQIYTAADKEVNNSTNGPGLNNILITLRRERDILDTKVTVAERDAKMLRQKISLMDVELQDARTKLDNSRVEKENHSSIIQQHDDIMEKLNQLNLLRESNITLRNELENNNNKKKELQSELDKLKQNVAPIESELTALKYSMQEKEQELKLAKEEVHRWKKRSQDILEKHEQLSSSDYEKLESEIENLKEELENKERQGAEAEEKFNRLRRQAQERLKTSKLSQDSLTEQVNSLRDAKNVLENSLSEANARIEELQNAKVAQGNNQLEAIRKLQEDAEKASRELQAKLEESTTSYESTINGLNEEITTLKEEIEKQRQIQQQLQATSANEQNDLSNIVESMKKSFEEDKIKFIKEKTQEVNEKILEAQERLNQPSNINMEEIKKKWESEHEQEVSQKIREAEEALKKRIRLPTEEKINKIIERKKEELEKEFEEKVEERIKSMEQSGEIDVVLRKQLEAKVQEKQKELENEYNKKLQEELKDVPHSSHISDDERDKLRAEIESRLREEFNNELQAIKKKSFDEGKQQAMMKTTLLERKLAKMESQLSETKQSAESPPKSVNNVQNPLLGLPRKIEENSNSPFNPLLSGEKLLKLNSKSSSGGFNPFTSPSPNKHLQNDNDKRESLANKTDPPTHLEPSFNIPASREGHHHHHH,soluble
8,MSLMGYKNNRVGYQKELLTSRAVIKKDNYAIIPHDGLVQNAVPGFENVDISILGSPKLGATFVDYIATFHKNGQQTTGFGGDGIQTLVYVIDGRLRVSDGQETHELEAGGYAYFTPEMKMYLANAQEADTEVFLYKKRYQPLAGHQPYKVVGSIHDQQPEEYEGMTDVLLWSLLPKEFDFDMNMHILSFEPGASHAYIETHVQEHGAYLISGQGMYNLDNEWYPVEKGDYIFMSAYVPQAAYAVGREEPLMYVYSKDANREPELEGGSHHHHHH,soluble
9,GNSKSGALSKEILEELQLNTKFTEEELSSWYQSFLKECPSGRITRQEFQTIYSKFFPEADPKAYAQHVFRSFDANSDGTLDFKEYVIALHMTSAGKTNQKLEWAFSLYDVDGNGTISKNEVLEIVTAIFKMISPEDTKHLPEDENTPEKRAEKIWGFFGKKDDDKLTEKEFIEGTLANKEILRLIQFEPQKVKEKLKEKKL,soluble
10,MGSDKIHHHHHHMKEQNNIPTSKVERATKFVQTGAKIGGNYIKHYAKKAFNPELTKEQLHEDNSKDVYETLSQLKGSALKVAQMLSQDKNMLPQAYVDKFTMAQYSAPPLSYPLVVKTFQKYFGKSPESMFDTFERNASNAASIGQVHKATKDGKVFAVKIQYPGVAESVSSDLKLVKPFALRLMNMKEKDLDMYMDEVESKLIEETDYELELRRSNEISTQCAHITGLVFPAYYPEYSSKRILTMDWLEGLHMKEFLATNPSQEIRNQIGQLLWDFYDFQMHQLRTVHADPHPGNFLMRSNGSLGVIDFGCVKEIPEEFYTEYFKLLNKEVIEDKTELLKTFERLNFFDAEDTALQREIFFDLFCEMTHLLGLPFYSETFDFSDDSYFKRIYDFGEHISNVKEIKDARQARGSRHGIYINRTYFGLYNLLNQLGANVRTKSYGEVAIEV,not soluble
11,MTPKEIFESNRPGSKDVAWCPGCGNFGIRNILIEAFSELNLKPTEVVIISGIGQAAKMPHYINVNGYHTLHGRAIPIATAVKAANPSLTVIAEGGDGDMYAEGGNHLLHAIRRNPDITVLIHNNQIYGLTKGQASPTTPIGMKTPTQPWGVFEEPLNPIALAIALGASFVARTFVGYFKESVEIIKQAIKHKGLAIVDIFQPCVSFNKLNTYSWYKEHTYWMKDHDPHDRIEAFKRAIETDPLPLGIFYINEKPTFEEQVPAYKRDKRPLWMRDPKIELVKKFFESKR,not soluble
12,QPTAQQQLTKPAKITCANCKKPLQKGQTAYQRKGSAHLFCSTTCLSSFS,soluble
13,ENSLIGLNDHTLVTEDDGRRWVTHEPALVYFHNKYWFNIIAMIRNDGVSYYCNLASPYVMDKEALKYIDYDLDIKVLTNGTKHLLDADEYIAHGQLWNYP,not soluble
14,MKLSTSLEMPFRESTDPICSVCNFSSLIAPHFGGLVCSACASFFRRTVALNIHYLCKKDNQCKGMRKNCRACRFESCVKIAGMKRSLVKERKNLNNIPLYILNRRNETGNQGVVRAFVSSNQNRLENRLSLSPLTELPINDEMDVSKILKTTPSSLLKYYVEQVSHGKQFYMNTLNIRTKEELFEIVSYQSKVAAETCRTCPGVDLLDNRDILILRKYFQFSNIWIESTWKYWFSNDFSNDTEKFDIKLMEFIGQVKSTLLISLSRLKFNIFEFTAFKAICIWKLVYHETSRAMKIVAQEHYEGVTKALISYYQTYTLLDSMEIAIRVGEITLLVSSVFQMYHDMAKLYLHMGLPF,not soluble
15,MKNNLPIIALDFASAEETLAFLAPFQQEPLFVKVGMELFYQEGPSIVKQLKERNCELFLDLKLHDIPTTVNKAMKRLASLGVDLVNVHAAGGKKMMQAALEGLEEGTPAGKKRPSLIAVTQLTSTSEQIMKDELLIEKSLIDTVVHYSKQAEESGLDGVVCSVHEAKAIYQAVSPSFLTVTPGIRMSEDAANDQVRVATPAIAREKGSSAIVVGRSITKAEDPVKAYKAVRLEWEGIKS,soluble
16,MQSIPIKNVGESRLVDPFQRQYYYLRLSITDQCNFRCTYCLPDGYQPEANKPSFLTLKEITHLAQAFAEMGTEKIRLTGGEPTLRKDFISIAESITNIDGIRQLAVTTNGYRMAKDVADWKKAGITSINVSVDSLDPKMFHQITGINKFDDVMRGIDRAFEVGYNKVKVNSVLMKNLNDKEFEQFLAWVKDRPIQMRFIELMQTGEMDSFFDKFHLSGQVLADKLLKNGWTLQHKSHTDGPAKVFTHPDYAGEIGLIMPYEKNFCASCNRLRVSAKGKLHLCLFGEEGIELRDLLQSHEQQGILQARIFAALQGKREHHYLHIGDTGVRNHLASIGGMGHHHHHHSH,not soluble
17,MGSDKIHHHHHHMTQSFIVDEAFWQLFPEVEIAFLTAQDIDNHAKEQVPTDLLTTANHVAATKWVPNDPISQNTVVQDWRQAFQQFKTKKGARCAVENLLKRAKNGKGVGTINPVVDVYNSVSLEWAFPVAAEDMDQIKGDIHLTVAQGGERFRPIGEDDVETALPGEVIYRDAYDVISRCWAWRDSARVEATEATQNLLFYMENVNPQRHADHVAATAALRTRLHDYLGISTTLHVVTHDQPSVAFKD,not soluble
18,SNANFNRFTQRAKKAIDLAFESAKSLGHNIVGSEHILLGLLREEEGIAAKVLSKVGFTEAYLEGKIVDMEGKGEEISEDIVLSPRSKQILELSGMFANKLKTNYIGTEHILLAIIQEGEGIANKILNYAGVNDRTLAQLTIDMMG,soluble
19,MAHHHHHHMSVVTTLSGVFEADLEATLMGYIHEAIGNAVNKGLQYARSTAQDRVLKMLIAYRRVCTSNATSSLLMPSRLRLIPLFVLSFMKADALVEGTTVPIDDRVQKLFLLMTIPMHQCVTYLYPTLYAVHHLLSEPTSGVIDPETGHCVLPGWQQLIFDSITTDGVYVLCDEQARIVYLWIGSSVVPEVSLELFGTTNALDVGRTVFFENFGERLKNVLYTCLMRDDGMRRFVILHEKDRGEEAFFRQFKEENEGGSMGYDQLLVHLHREVKKSIE,not soluble
20,MTPPEIDFFPDFIADPHRLFNHLKDSVLWDERMRARKTASFGAPYDYSQITYPAVPMPEALEQLCGPIEQLLGFRPNNCLLNCYPDGHSSMGFHSDANEQLVTGTGVVIVSLGHARAMVFRHKESGATFDYSLASGSLLHMSDELQKHWLHAIPKAPDAGERISLSFRQLKTGLEHHHHHH,soluble
